Data published in publication PMC2799554.

Target: Moraxella immunoglobulin (Ig) D binding protein (MID) of M. catarrhalis BBH18, on whole bacteria and on their outer membrane vesicles (OMV) (Moraxella catarrhalis)
Experiment: flow cytometry on cells

## human IgD, soluble, from serum (natural protein)
  percent reduction of bacterial binding to B cells at 150 µg/ml IgD: 40%
